Test results reported in the Human Domainome abundance scans (Beltran et al. 2025).
± gives the uncertainty stated by the source.

B1: MEF2-activating motif and SAP domain-containing transcriptional regulator, residues 170 to 204; numbered along this chain, Q6ZN01 (parent)
chain: LKLEELTVSELRQQLRLRGLPVSGTKSMLLERMRG
B2: Storkhead-box protein 2, residues 64 to 141; numbered along this chain, Q9P2F5 (parent)
chain: SPISQSQFIPLGEILCLAISAMNSARKPVTQEALMEHLTTCFPGVPTPSQEILRHTLNTLVRERKIYPTPDGYFIVTP

Variants of: B1
Experiment: abundance fitness (aPCA) (normalised: wild type 0, dead -1); higher = more abundant; growth selection in yeast, the domain comes from the species named
Conditions: Homo sapiens

L17F and E4N are within error of each other in abundance fitness: -0.271 ± 0.15 for the first, -0.017 ± 0.21 for the second.

G19Q and R34F are within error of each other in abundance fitness: -0.402 ± 0.1 for the first, -0.516 ± 0.099 for the second.

R34Y and L1R are within error of each other in abundance fitness: -0.316 ± 0.08 for the first, -0.262 ± 0.14 for the second.

M33T and L11M are within error of each other in abundance fitness: -0.525 ± 0.099 for the first, -0.331 ± 0.32 for the second.

R32L and E5L are within error of each other in abundance fitness: -0.485 ± 0.098 for the first, -0.548 ± 0.1 for the second.

Compared with Q14C, S9A is higher in abundance fitness: -0.313 ± 0.11 for the first, 0.016 ± 0.054 for the second.

Going from R12S to M28F, the abundance fitness falls from -0.29 ± 0.087 to -0.616 ± 0.23.

Variants of: B2
Experiment: as above
Conditions: Homo sapiens

First: N23Q
Second: N23I
The abundance fitness of the first is higher: -0.123 ± 0.063 for the first, -0.296 ± 0.083 for the second.

Compared with N23F, N23S is higher in abundance fitness: -0.535 ± 0.12 for the first, -0.12 ± 0.038 for the second.

L17M and T77D are within error of each other in abundance fitness: -0.041 ± 0.07 for the first, 0.077 ± 0.06 for the second.

T77R and T77N are within error of each other in abundance fitness: 0.09 ± 0.048 for the first, 0.059 ± 0.085 for the second.

T77M and V76T are within error of each other in abundance fitness: -0.164 ± 0.12 for the first, -0.03 ± 0.057 for the second.

V76H and T40G are within error of each other in abundance fitness: -0.114 ± 0.092 for the first, -0.045 ± 0.042 for the second.

T40Y and T40I are within error of each other in abundance fitness: -0.069 ± 0.12 for the first, -0.066 ± 0.073 for the second.

Compared with T40L, V29N is lower in abundance fitness: -0.077 ± 0.024 for the first, -1.07 ± 0.44 for the second.

First: V29Y
Second: V29S
The abundance fitness of the first is lower: -0.592 ± 0.12 for the first, -0.065 ± 0.056 for the second.

Compared with S4P, S4G is lower in abundance fitness: 0.007 ± 0.045 for the first, -0.17 ± 0.032 for the second.

S4K and S4F are within error of each other in abundance fitness: -0.154 ± 0.093 for the first, -0.151 ± 0.052 for the second.

S4I and S4W are within error of each other in abundance fitness: -0.079 ± 0.073 for the first, -0.161 ± 0.061 for the second.

S24C and S24V are within error of each other in abundance fitness: -0.084 ± 0.066 for the first, -0.007 ± 0.052 for the second.

First: S24T
Second: S24F
The abundance fitness of the first is higher: 0.058 ± 0.052 for the first, -0.162 ± 0.08 for the second.

Q31N and F8V are within error of each other in abundance fitness: 0.004 ± 0.09 for the first, -0.063 ± 0.043 for the second.

F8D and F8E are within error of each other in abundance fitness: -0.027 ± 0.12 for the first, -0.012 ± 0.082 for the second.

F8W and F8R are within error of each other in abundance fitness: -0.016 ± 0.058 for the first, -0.059 ± 0.03 for the second.

F8A and K65R are within error of each other in abundance fitness: -0.055 ± 0.07 for the first, -0.031 ± 0.038 for the second.

Compared with K65A, K65Q is higher in abundance fitness: -0.134 ± 0.054 for the first, 0.078 ± 0.067 for the second.

K65T and R64L are within error of each other in abundance fitness: -0.03 ± 0.063 for the first, -0.124 ± 0.044 for the second.

R64N and R64S are within error of each other in abundance fitness: -0.043 ± 0.13 for the first, -0.021 ± 0.045 for the second.

R64A and R64K are within error of each other in abundance fitness: -0.029 ± 0.041 for the first, 0.061 ± 0.11 for the second.

I66V and I66C are within error of each other in abundance fitness: -0.041 ± 0.048 for the first, 0.016 ± 0.059 for the second.

First: I66A
Second: I66E
The abundance fitness of the first is higher: -0.173 ± 0.05 for the first, -1.08 ± 0.21 for the second.

K27E and K27T are within error of each other in abundance fitness: -0.054 ± 0.075 for the first, 0.034 ± 0.043 for the second.

K27H and K27W are within error of each other in abundance fitness: -0.119 ± 0.084 for the first, -0.184 ± 0.04 for the second.

L15A and L15V are within error of each other in abundance fitness: -0.034 ± 0.15 for the first, 0.039 ± 0.061 for the second.

Compared with L15E, F74V is higher in abundance fitness: -0.67 ± 0.12 for the first, -0.003 ± 0.051 for the second.

Going from F74N to F74L, the abundance fitness rises from -0.361 ± 0.27 to -0.046 ± 0.044.

F74P and L11K are within error of each other in abundance fitness: -0.445 ± 0.064 for the first, -0.51 ± 0.1 for the second.

L11A and L11N are within error of each other in abundance fitness: -0.258 ± 0.033 for the first, -0.466 ± 0.21 for the second.

L11R and L11W are within error of each other in abundance fitness: -0.428 ± 0.05 for the first, -0.418 ± 0.076 for the second.

R54W and R54F are within error of each other in abundance fitness: -0.285 ± 0.091 for the first, -0.082 ± 0.24 for the second.

First: R54M
Second: E13F
The abundance fitness of the first is higher: 0 ± 0.081 for the first, -0.349 ± 0.081 for the second.

Compared with E13L, P78V is higher in abundance fitness: -0.34 ± 0.05 for the first, -0.182 ± 0.09 for the second.

P78E and P78N are within error of each other in abundance fitness: -0.44 ± 0.29 for the first, -0.219 ± 0.18 for the second.

P78Y and P78C are within error of each other in abundance fitness: -0.098 ± 0.14 for the first, 0.072 ± 0.2 for the second.

Y67G and Y67I are within error of each other in abundance fitness: -0.053 ± 0.036 for the first, 0.02 ± 0.12 for the second.

Y67N and Y67V are within error of each other in abundance fitness: -0.06 ± 0.096 for the first, -0.02 ± 0.039 for the second.

P70S and P70A are within error of each other in abundance fitness: 0.016 ± 0.037 for the first, 0.023 ± 0.045 for the second.

P70M and P70H are within error of each other in abundance fitness: -0.097 ± 0.077 for the first, -0.143 ± 0.085 for the second.

P70K and P70I are within error of each other in abundance fitness: 0.041 ± 0.068 for the first, 0.021 ± 0.11 for the second.

P70G and N58K are within error of each other in abundance fitness: -0.027 ± 0.039 for the first, -0.071 ± 0.059 for the second.

N58V and N58H are within error of each other in abundance fitness: 0.002 ± 0.035 for the first, 0.017 ± 0.13 for the second.

N58I and N58Y are within error of each other in abundance fitness: -0.041 ± 0.076 for the first, -0.203 ± 0.11 for the second.

N58G and N58D are within error of each other in abundance fitness: 0 ± 0.031 for the first, -0.005 ± 0.078 for the second.

Compared with N58Q, T30Y is lower in abundance fitness: -0.03 ± 0.037 for the first, -0.142 ± 0.072 for the second.

Compared with T30L, T30F is higher in abundance fitness: -0.218 ± 0.036 for the first, -0.074 ± 0.057 for the second.

Compared with T30I, Y73R is higher in abundance fitness: -0.211 ± 0.066 for the first, -0.055 ± 0.048 for the second.

Y73E and Y73K are within error of each other in abundance fitness: -0.089 ± 0.077 for the first, -0.085 ± 0.1 for the second.

Y73S and Y73W are within error of each other in abundance fitness: -0.011 ± 0.059 for the first, -0.041 ± 0.06 for the second.

Compared with L57T, L57D is lower in abundance fitness: -0.193 ± 0.058 for the first, -0.793 ± 0.24 for the second.

L57S and L57E are within error of each other in abundance fitness: -0.799 ± 0.068 for the first, -0.784 ± 0.26 for the second.

L60E and L60N are within error of each other in abundance fitness: -0.835 ± 0.11 for the first, -0.927 ± 0.17 for the second.

Compared with L60Y, E36T is higher in abundance fitness: -0.666 ± 0.12 for the first, -0.006 ± 0.067 for the second.

E36Q and E36Y are within error of each other in abundance fitness: 0.029 ± 0.075 for the first, -0.144 ± 0.2 for the second.

E36K and E36S are within error of each other in abundance fitness: -0.008 ± 0.087 for the first, -0.001 ± 0.048 for the second.

First: E36N
Second: C16E
The abundance fitness of the first is higher: 0.054 ± 0.11 for the first, -0.148 ± 0.087 for the second.

C16F and C16W are within error of each other in abundance fitness: -0.074 ± 0.11 for the first, -0.052 ± 0.076 for the second.

A33C and A33W are within error of each other in abundance fitness: -0.188 ± 0.075 for the first, -0.279 ± 0.05 for the second.

First: A33P
Second: L38P
The abundance fitness of the first is higher: -0.339 ± 0.043 for the first, -0.998 ± 0.3 for the second.

L38K and L38S are within error of each other in abundance fitness: -0.608 ± 0.4 for the first, -0.613 ± 0.066 for the second.

Going from L38T to L38Q, the abundance fitness falls from -0.258 ± 0.059 to -0.865 ± 0.16.

T47Y and T47E are within error of each other in abundance fitness: -0.132 ± 0.085 for the first, -0.199 ± 0.05 for the second.

Going from T47D to T47Q, the abundance fitness rises from -0.277 ± 0.067 to -0.067 ± 0.054.

Going from T47W to T47K, the abundance fitness rises from -0.397 ± 0.04 to 0.021 ± 0.056.

G72E and G72S are within error of each other in abundance fitness: -0.078 ± 0.074 for the first, -0.121 ± 0.04 for the second.

G72Q and I52D are within error of each other in abundance fitness: -0.034 ± 0.05 for the first, -0.043 ± 0.11 for the second.

I52N and I52P are within error of each other in abundance fitness: -0.46 ± 0.17 for the first, -0.654 ± 0.09 for the second.

Going from I52L to L34K, the abundance fitness falls from -0.05 ± 0.052 to -1 ± 0.21.

L34I and S6N are within error of each other in abundance fitness: -0.012 ± 0.12 for the first, -0.033 ± 0.078 for the second.

S6M and S6W are within error of each other in abundance fitness: -0.123 ± 0.079 for the first, -0.246 ± 0.056 for the second.

Q5H and Q5K are within error of each other in abundance fitness: -0.099 ± 0.081 for the first, 0.012 ± 0.09 for the second.

Q5C and P10D are within error of each other in abundance fitness: -0.025 ± 0.063 for the first, -0.135 ± 0.21 for the second.

P10W and P10N are within error of each other in abundance fitness: 0.175 ± 0.076 for the first, 0.108 ± 0.12 for the second.

Compared with P10V, S1Y is lower in abundance fitness: 0.171 ± 0.063 for the first, -0.122 ± 0.093 for the second.

For S1E, the abundance fitness was -0.581 ± 0.24.
